B1: HDV Ribozyme (parent)
chain: GGCCGGCAUGGUCCCAGCCUCCUCGCUGGCGCCGGCUGGGCAACAUUCCGAGGGGACCGUCCCCUCGGUAAUGGCGAAUGGGACCCA

Variants of: B1
Experiment: self-cleavage, relative activity (ratio to wild type); higher = more cleavage; co-transcriptional

Row | Variant | self-cleavage
1 | U9C C41A | 1.19
2 | G10C G29U | 0.0707
3 | G10C G29C | 0.155
4 | G10A U60C | 0.787
5 | U9C C63A | 1.14
6 | G10C C33A | 0.213
7 | U9C G31A | 0.269
8 | U9C G31U | 0.399
9 | G11C C14G | 0
10 | G10U G34U | 0.323
11 | G10U G34C | 0.189
12 | G10A C41A | 0.604
13 | U9G G28U | 0.151
14 | U9G A16U | 1.14
15 | G11A A87U | 0.495
16 | U9C G68C | 0.89
17 | G10A C75G | 0.086
18 | G10U C32A | 0.1
19 | G10U C32G | 0.0554
20 | U9G C44G | 0.7
21 | G11A A56G | 0.346
22 | U9G C66A | 0.594
23 | U9G G54C | 0.831
24 | U9G G54A | 0.95

Row | Variant | self-cleavage
25 | G10C U37A | 0.177
26 | G10C U37C | 1.05
27 | G10U A87C | 0.801
28 | G11A G29U | 0.12
29 | G10C C63A | 0.88
30 | G10C C63G | 0.852
31 | U9C U79C | 0.499
32 | U9C U46C | 0.831
33 | U9G G80C | 0.246
34 | G11A C61U | 0.529
35 | U9G A87C | 0.969
36 | G10A C44U | 0.463
37 | G10A C44G | 0.415
38 | G11A C15U | 0.479
39 | G10C C84G | 0.578
40 | G10C C84A | 0.705
41 | G10C U47G | 1.35
42 | G10C U47A | 0.853
43 | G10U G11A | 0.267
44 | G10A G39A | 0.321
45 | G11A U46C | 0.166
46 | G11C A56G | 0.172
47 | G10A G52A | 0.749
48 | G10U G29A | 0.0536

Row | Variant | self-cleavage
49 | G10U G29C | 0.0615
50 | G10C G11U | 0.185
51 | G10U C58U | 0.982
52 | G10U C58A | 0.873
53 | U9C C75G | 0
54 | G10U G81U | 0.0791
55 | G10U G81C | 0.101
56 | U9G C49G | 0.886
57 | U9C U23C | 1.06
58 | G11A G68C | 0.256
59 | G10A C64A | 0.646
60 | G10A C64G | 0.749
61 | G10C C14G | 0.312
62 | G10C G54A | 0.831
63 | G10A G67A | 0.66
64 | U9C C58G | 1.14
65 | G11A C64A | 0.475
66 | G10C C26U | 0.997
67 | U9G A71G | 0.831
68 | U9G A71C | 0.787
69 | U9G A71U | 1.13
70 | G11A C63G | 0.514
71 | G11A C63A | 0.345
72 | U9C G34C | 0.361

Row | Variant | self-cleavage
73 | U9C G34A | 0.208
74 | G10U A78U | 0.0554
75 | G10C C24A | 0.692
76 | G10C C24U | 0.646
77 | G11A C86G | 0.306
78 | G11A C86A | 0.535
79 | G10U C19G | 0.1
80 | U9G G17A | 0.225
81 | G11A G28U | 0.0339
82 | U9G G34U | 0.237
83 | G10C C75A | 0.415
84 | G10U C63A | 0.845
85 | G10U C63G | 0.798
86 | G10U C63U | 0.686
87 | G10U G53A | 0.769
88 | G10A U12C | 0.188
89 | G11A C22A | 0.0443
90 | G11A C22U | 0.041
91 | G10U C18A | 0.0175
92 | G10A U72G | 0.378
93 | G10A U72C | 0.175
94 | U9G C63A | 0.935
95 | G10C C18A | 0.0906
96 | G10C C18U | 0.396

Row | Variant | self-cleavage
97 | G10C G31C | 0.237
98 | G10C G31A | 0.393
99 | G11C A16U | 0.434
100 | G10A C13U | 0.179
101 | U9G G29U | 0
102 | G11C A45U | 0.0554
103 | U9C U27G | 0.914
104 | G11A U23G | 0.13
105 | G10A G38U | 0.0923
106 | U9C G10C | 0.767
107 | G10A G29A | 0.0798
108 | G10A G29U | 0.0275
109 | G10A G29C | 0.0767
110 | G11C C41A | 0.185
111 | G10A G54A | 0.591
112 | U9G A42G | 0.727
113 | U9G G25A | 0.0755
114 | U9G G25U | 0.383
115 | G10A U79G | 0.232
116 | G11C C84U | 0.18
117 | G10A A87G | 0.857
118 | G10U U79G | 0.38
119 | G10A A70G | 0.801
120 | G10A A70C | 0.48

Row | Variant | self-cleavage
121 | G10U G76U | 1.14
122 | U9G G11A | 0.346
123 | G10U G31A | 0.29
124 | G11A U69A | 0.166
125 | G10C G59U | 0.815
126 | G10C A16U | 1.49
127 | G10C U20A | 0.0519
128 | G10A G82C | 0.231
129 | G10C G35U | 0.374
130 | U9C C64G | 0.95
131 | G10A C18A | 0.0567
132 | G10A C18U | 0.138
133 | G10A C18G | 0.0817
134 | U9C G74U | 0.467
135 | U9C G73A | 0.675
136 | U9C G73C | 0.291
137 | U9C U12C | 0.119
138 | U9C U12G | 1.07
139 | U9C U12A | 0.511
140 | G11A G31U | 0.0475
141 | G11A G59A | 0.38
142 | U9G C84U | 0.831
143 | G10C C15U | 0.582
144 | G10C C15A | 0.237

Row | Variant | self-cleavage
145 | G11A G53A | 0.437
146 | G11A C75U | 0.144
147 | G10C G80U | 0.219
148 | G10C G80C | 0.104
149 | U9G U37C | 1.37
150 | G10U C36A | 0.067
151 | G10C C57G | 0.81
152 | G10C C58U | 1.23
153 | G10C U65C | 0.831
154 | G10U G73A | 0.235
155 | G11A C26A | 0.878
156 | G11A C26G | 0.99
157 | U9C G40U | 0.449
158 | G10A C57U | 0.797
159 | G10A C62G | 0.456
160 | U9G G50A | 1.18
161 | G10A C58A | 0.816
162 | G10A C58U | 0.972
163 | U9G C13A | 0.831
164 | G11C C26U | 0.895
165 | U9C C66U | 0.919
166 | G10C G53C | 1.02
167 | G10U G54A | 0.735
